Experimental data as given in the supplement of paper PMC10567573.
± gives the standard deviation.

Experiment: protein stability index of a GFP-peptide fusion (GPS, HEK-293T) (PSI 1-6); higher = more stable
[1] = treatment: DMSO, c terminus: a fixed tail appended
[2] = treatment: MLN4924 1 uM, 8 h, c terminus: a fixed tail appended
[3] = treatment: DMSO, c terminus: native
[4] = treatment: MLN4924 1 uM, 8 h, c terminus: native
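Further: 24-mer peptide tiles fused after GFP, lentivirally expressed, FACS-sorted into six equal bins by GFP/DsRed ratio, decoded by Illumina sequencing, PSI is the read-weighted mean bin number.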

| Sequence | protein stability index [1] | protein stability index [2] | protein stability index [3] | protein stability index [4] |
| --- | --- | --- | --- | --- |
| NKQKCVERNEVRNVFKELQIMQGL [STK32A] | 2.94 ± 0.4 | 2.93 ± 0.24 |  |  |
| LQKKVEQLSRELSTLRNLFKQLPE [CEBPB] | 2.3 ± 0.32 | 2.43 ± 0.41 |  |  |
| TCVNLLLEASNYQMMPYMQPVMQS [KLHL13] | 3.06 ± 0.41 | 2.98 ± 0.36 |  |  |
| KSVRLARELESREAELRRRDTFYK [CHCHD6] | 4.23 ± 0.26 | 4.36 ± 0.29 |  |  |
| VLGADGVCMTFMKQIAGGDVTAKN [INTS3] | 3.51 ± 0.26 | 3.6 ± 0.42 |  |  |
| DFHLSIHSDMAAIVKAMASPESGL [DVL3] | 2.87 ± 0.21 | 2.85 ± 0.24 |  |  |
| LNQKTSEKMKKRKMSNSFHGIRPP [RHOBTB3] | 3.95 ± 0.34 | 4.23 ± 0.11 |  |  |
| HVRHMAYQLCHALRFLHENQLTHT [CLK3] | 3.06 ± 0.3 | 3.01 ± 0.38 |  |  |
| APDPELAAEMYQRGRAVLREAGFH [RSAD1] | 3.92 ± 0.32 | 4.07 ± 0.22 |  |  |
| GLTKKRTKVQKKSLLLKKPLRVDL [NOP53] | 3.25 ± 0.13 | 3.42 ± 0.35 |  |  |
| QGDKAIREQGPREQEPELSFLKQK [PBXIP1] | 5.44 ± 0.33 | 5.42 ± 0.16 |  |  |
| LDAVEAQIGCKLPDDYRCSYRIHN [FBXO3] | 2.98 ± 0.39 | 3.15 ± 0.33 |  |  |
| RLTSQDWERVHLIVAGGYDERVLE [ALG2] | 3.06 ± 0.28 | 3.21 ± 0.27 |  |  |
| GHKEEEDGEGAGPGEQGGGKLVLS [ESRRA] | 5.3 ± 0.27 | 5.42 ± 0.4 |  |  |
| PDIRTKDIEDVFYKYGAIRDIDLK [SRSF1] | 3.59 ± 0.12 | 3.62 ± 0.24 |  |  |
| RGAPRGGGRGGSRSDRGGGRSRY [RBMX] |  |  | 5.34 ± 0.14 | 5.33 ± 0.11 |
| IPLLSSVNVSDRGGRTALHHAALN [ANKRD44] | 3.42 ± 0.38 | 3.16 ± 0.3 |  |  |
| GGGGCDRYEPLPPSLPAAGEQDCC [KCNA3] | 5.02 ± 0.33 | 5.06 ± 0.29 |  |  |
| VLSHIMFDGPEAWGVCEPQREEVE [ZER1] | 3.63 ± 0.17 | 3.49 ± 0.28 |  |  |
| KVFIPSLFLSHVLALGLGIYIGKR [BNIP3L] | 2.34 ± 0.89 | 2.3 ± 0.6 |  |  |
| RCGYRLVRRQRSADEQLHCAGKAK [ESR2] | 3.69 ± 0.36 | 3.91 ± 0.26 |  |  |
| QQLYRHGKAYRFLFGFSAVSIMYL [JAGN1] | 2.82 ± 0.2 | 3.28 ± 0.93 |  |  |
| KVYYEVIQLIKTNKKHIHSRSTLE [SMG5] | 2.33 ± 0.93 | 2.26 ± 0.25 |  |  |

| Sequence | protein stability index [1] | protein stability index [2] | protein stability index [3] | protein stability index [4] |
| --- | --- | --- | --- | --- |
| KVKTMEVTSVSIELEKNFSNFPRQ [TRIM39] | 3.15 ± 0.23 | 3.42 ± 0.36 |  |  |
| MLYEKQKQQNVAHCMLVSNRVSWW [ZBED1] | 2.08 ± 0.17 | 2.31 ± 0.2 |  |  |
| LPWLSLRALKFRERDALEAVFRFW [DNAAF3] | 2.46 ± 0.24 | 2.49 ± 0.28 |  |  |
| MATEGLHENETLASLKSEAESLKG [GNB5] | 5.31 ± 0.23 | 5.2 ± 0.15 |  |  |
| HHSLASSLRSHHTHPSYGPPGVPP [DVL3] | 3.51 ± 0.29 | 3.58 ± 0.22 |  |  |
| CESDIWALGCVMYTMLLGRPPFET [PLK2] | 3.72 ± 0.55 | 3.59 ± 0.71 |  |  |
| QTGDPTSPIKLSPTSPVYRGSSSG [MTUS2] | 4.76 ± 0.26 | 4.82 ± 0.2 |  |  |
| MTLLPGDNSDYDYSALSCTSDASF [KCNG1] | 3.79 ± 0.27 | 3.87 ± 0.24 |  |  |
| ISKNSEKKMESEEDSNWEKSPDNE [GOLPH3L] | 5.57 ± 0.21 | 5.58 ± 0.1 |  |  |
| KKHEFLTSVLDALSTDMVHAASDP [SMOC2] | 3.33 ± 0.24 | 3.46 ± 0.18 |  |  |
| QPPPAPPKKIMPEAHSHYLYGHML [PPFIA4] | 2.76 ± 0.26 | 2.91 ± 0.22 |  |  |
| DSIKDEDRTSLATFHEGKHNISHM [WDFY1] | 4.66 ± 0.23 | 4.59 ± 0.28 |  |  |
| EMTTTDDLDFKHHNYKEMRQLMKV [CPXM2] | 3.75 ± 0.099 | 3.53 ± 0.18 |  |  |
| TWRDPQDEVPGSQGSQASQAPPVP [NR2F2] | 5.18 ± 0.19 | 5.16 ± 0.23 |  |  |
| FLSENATVAAETRAVIAWMEKIPF [CPXM2] | 2.04 ± 0.12 | 2.28 ± 0.5 |  |  |
| FSIVSVAAHLALLLLCGTISLRVY [RTN2] | 3.35 ± 0.76 | 3.16 ± 0.8 |  |  |
| SVVRRCVKVLAGQEYAAKIINTKK [CAMK2A] | 2.72 ± 0.35 | 2.52 ± 0.5 |  |  |
| LRTYLARLPWAGQLTKELPLSPAF [PBXIP1] | 2.22 ± 0.64 | 2.16 ± 0.22 |  |  |
| QSLTQRLHALKLRSPDASPSRAPP [GNAS] | 4.06 ± 0.17 | 4.14 ± 0.22 |  |  |
| PVVGSTRRLYEKKIFEYETQRRRL [EMD] | 3.16 ± 0.25 | 3.18 ± 0.06 |  |  |
| ADACDIDEIEEVPTTSHRLSRHDK [NETO1] | 5.59 ± 0.17 | 5.45 ± 0.17 |  |  |
| EGMDRWIKKIEEHAPGVPKILVGN [RAB40A] | 3.41 ± 0.18 | 3.21 ± 0.31 |  |  |
| WGDCSRTCGGGVQFSSRDCTRPVP [ADAMTS4] | 2.9 ± 0.95 | 2.94 ± 0.26 |  |  |

| Sequence | protein stability index [1] | protein stability index [2] | protein stability index [3] | protein stability index [4] |
| --- | --- | --- | --- | --- |
| NESALVKEKELSIELANIRDEVAF [MTUS2] | 4.42 ± 0.28 | 4.33 ± 0.46 |  |  |
| AVYLMTFLIVTVAWAAHTRLFQVV [TMEM175] | 3.17 ± 0.097 | 3.18 ± 0.2 |  |  |
| SNEFKESALTLACYKGHLEMVRFL [ANKRD17] | 2.21 ± 0.18 | 2.4 ± 0.34 |  |  |
| PPKRMLGADREFIEARRRALKRFV [SNX8] | 3.36 ± 0.43 | 3.62 ± 0.17 |  |  |
| NQEITKAFHVRRTNRVKECLAKGT [RHOBTB2] | 3.41 ± 0.51 | 3.64 ± 0.7 |  |  |
| DVYSFAIVIWGVLTQKKPFADEKN [RIPK4] | 2.61 ± 0.77 | 1.86 ± 0.072 |  |  |
| YLAYINAKSRAEAALEEESRQRQS [SMARCE1] | 3.93 ± 0.33 | 3.75 ± 0.33 |  |  |
| GGLSPVTNLTVTMDQLQGLGSDYE [CDC25A] | 4.24 ± 0.38 | 4.48 ± 0.18 |  |  |
| RLWRLFQTLDVNRDGGLCVNDLAV [SLC25A25] | 2.56 ± 0.2 | 2.49 ± 0.17 |  |  |
| EMHTSRDHSSQSEEEVVEGEKEVE [BNIP3L] | 5.682 ± 0.045 | 5.59 ± 0.16 |  |  |
| SSFIKTEPSSPASLTDSVNHHSPG [ESRRG] | 4.79 ± 0.17 | 4.9 ± 0.18 |  |  |
| DDFRTKYQTEQSLRQLVESDINSL [KRT33B] | 4.6 ± 0.2 | 4.39 ± 0.12 |  |  |
| LLVINESIESIKWMIEEKATITSR [LURAP1L] | 2.38 ± 0.24 | 2.51 ± 0.3 |  |  |
| PPLWAASAAGHLDVVRSLLRRGAS [FEM1A] | 3.55 ± 0.28 | 3.43 ± 0.28 |  |  |
| GAREEDLDAVEAQIGCKLPDDYRC [FBXO3] | 5.25 ± 0.073 | 5.15 ± 0.12 |  |  |
| NILFDFVKKKKEEGVIDSSDKEIV [EIF5] | 3.65 ± 0.12 | 3.74 ± 0.27 |  |  |
| QPAFTGIKGKEGSALTEGAKEEGG [EPB41L3] | 5.5 ± 0.071 | 5.65 ± 0.23 |  |  |
| GSLCSLWFGASVLSLLELLELLLD [SCNN1D] | 2.17 ± 0.36 | 1.91 ± 0.27 |  |  |
| VYEDETKVVHAVDGTAENGIHPLS [PALM] | 4.88 ± 0.24 | 5.11 ± 0.11 |  |  |
| HSQELTNEKEKALQAQVQYQQQHE [SASS6] | 5.45 ± 0.26 | 5.51 ± 0.14 |  |  |
| RGNVVLRAQMIRNEYRKLHPVLHK [TRIM43] | 2.25 ± 0.38 | 2.77 ± 0.56 |  |  |
| VCCCELGVNPDQVEKIRKLPNTLL [ANKRD40] | 2.26 ± 0.36 | 2.82 ± 0.32 |  |  |
| ENVSVEMLLRKFAESKGTGREKPG [FCHO1] | 3.9 ± 0.086 | 4.23 ± 0.26 |  |  |

| Sequence | protein stability index [1] | protein stability index [2] | protein stability index [3] | protein stability index [4] |
| --- | --- | --- | --- | --- |
| LQNNCTSSITRQKKRLQELALALK [TMEM120A] | 2.79 ± 0.15 | 2.83 ± 0.4 |  |  |
| GQGPKPEADSQEQGHPQTGCECED [GAGE1] | 5.64 ± 0.15 | 5.4 ± 0.31 |  |  |
| LNSMPKRLCLVCGDIASGYHYGVA [ESRRG] | 2.48 ± 0.22 | 2.23 ± 0.39 |  |  |
| PLRSSLPISLQATPATPATLSASS [TFE3] | 4.47 ± 0.1 | 4.57 ± 0.14 |  |  |
| CPHCGDRTFYDPEPILCPCFMPN [PRAME] |  |  | 3.98 ± 0.25 | 3.99 ± 0.48 |
| SSRVPVGGGPEATLSISDVRTLSE [ZBTB22] | 4.49 ± 0.11 | 4.57 ± 0.38 |  |  |
| LRKREKAEEKERRRKEYDALKAAK [LRRC59] | 4.66 ± 0.4 | 4.79 ± 0.31 |  |  |
| EDLKGHVAETSGETIQGFWLLTKI [TPRG1] | 2.37 ± 0.59 | 2.07 ± 0.3 |  |  |
| APPPLKDDPEGDRDGCVITKVLL [ZBED3] |  |  | 5.4 ± 0.25 | 5.43 ± 0.4 |
| KELDENVEYEERESEFDIEDEDKS [RBBP5] | 5.65 ± 0.23 | 5.62 ± 0.32 |  |  |
| RSLFSSVPSKPPMSLEPQNGTYAG [ANKRD40] | 3.51 ± 0.19 | 4.29 ± 0.41 |  |  |
| IWDALDWTMQAYERNFWDPSPQLD [WDR41] | 2.2 ± 0.27 | 2.02 ± 0.34 |  |  |
| GGFQMHYEKTPFDQLAFIEELFSL [EID1] | 2.12 ± 0.9 |  |  |  |
| YLNFIRGVVDSEDLPLNISREMLQ [HSP90AB1] | 2.69 ± 0.12 | 3.09 ± 0.47 |  |  |
| LSPSRGVAQCLRDLVAMQWADAAG [ZSWIM9] | 2.7 ± 0.17 | 2.77 ± 0.28 |  |  |
| VEDLVDSLKLALLFYILTFVGAIF [RTN2] | 2.8 ± 0.35 | 2.48 ± 0.55 |  |  |
| ERRGGLPPLPLHPGGDQGGPPVGP [WAS] | 4.95 ± 0.4 | 5.22 ± 0.2 |  |  |
| RKPSVPWQRQMDQPQDRNQALGTH [RASAL3] | 4.08 ± 0.16 | 4.21 ± 0.19 |  |  |
| QNGEEGTSTPEDKESGQEGVDSMA [SMARCE1] | 5.44 ± 0.17 | 5.65 ± 0.29 |  |  |
| SSGRSCRNERSIQEKLQVLMAEGL [SMG5] | 2.64 ± 0.39 | 2.88 ± 0.12 |  |  |
